Data: the supplement of paper PMC9170038

Test system: MS2 coat protein
Experiment: apparent KD of MS2 coat protein; designed switch direction (-1 OFF switch, 1 ON switch): 1; higher = weaker reporter binding
Method in brief: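 Designed RNA switches were transcribed on Illumina chips by stalled E. coli RNA polymerase and titrated with SNAP-549-labelled MS2 coat protein from 0.7 or 1.5 nM, doubling to 3 µM. Step length ran from 0.8–1.5 h at the lowest concentration to 10–20 min at the highest. The apparent KD is the median over clusters for each design, from curve-fitted normalised cluster fluorescence.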

[1] = input ligand: microRNA oligo, concentration not stated
[2] = Eterna round: R95, input ligand: FMN 200 uM
[3] = Eterna round: R95, input ligand: microRNA oligo, concentration not stated
[4] = Eterna round: R95, input ligand: none

| Sequence | apparent KD of MS2 coat protein (input ligand: FMN 200 uM) | apparent KD of MS2 coat protein [1] | apparent KD of MS2 coat protein (input ligand: none) | apparent KD of MS2 coat protein [2] | apparent KD of MS2 coat protein [3] | apparent KD of MS2 coat protein [4] |
| --- | --- | --- | --- | --- | --- | --- |
| GUGGUCAGACAUGAGGAUCACCCAUGUGGAAUAAAUAACAGACAGGAUAUUUAAUAUAGGAUAUAAAAGAAGGGUCGAUUGGUG (Eterna round: R96, puzzle: Same State NG 3) | 0.11 µM | 0.0989 µM | 0.116 µM |  |  |  |
| GUGGUCAGACAUGAGGAUCACCCAUGUGGAAUAAAUAACGUACAGGAUAUUGAAUAUAGGAUAUACAAGAAGGGUAGAUUGGUG (Eterna round: R96, puzzle: Same State NG 3) | 0.167 µM | 0.115 µM | 0.127 µM |  |  |  |
| GUGGUCAGACAUGAGGAUCACCCAUGUGGAAUAAAUAAGGACUAGGAUAUGUAAUAUAGGAUAUAACAGAAGGAGUGGUUGGUG (Eterna round: R96, puzzle: Same State NG 3) | 0.0668 µM | 0.0421 µM | 0.0602 µM |  |  |  |
| GUGGUCAGACAUGAGGAUCACCCAUGUGGAAUAAAUAAGGAGAAGGAUAUGCAAUAUAGGAUAUAGCAGAAGGUUUGGUUGGUG (Eterna round: R96, puzzle: Same State NG 3) |  | 0.0696 µM |  |  |  |  |
| GUGGUGGGUUGAGGAUAUUGGUUGCAUAUGUUUAACAUGAGGAUCACCCAUGUGGGUUGCGGUUUCGAGAAGGUAGGUUGCUGG [salish99_SSNG2_r04_045bad] (Eterna round: R96, puzzle: Same State NG 2) | 0.112 µM | 0.106 µM | 0.112 µM |  |  |  |
| GUUAAGAACUAAGGAUAUUGAAUACAUAUGUUUAACAUGAGGAUCACCCAUGUGGGUUGCGGUAUCGAGAAGGUAGAAUAAUAG [Mat - same State NG 2 - JL mod - D93] (Eterna round: R96, puzzle: Same State NG 2) |  | 0.0898 µM |  |  |  |  |
| GUUACAUGAGGAUCACCCAUGUAUGUGUGGGAGUAAGUGUCUUAGGAUAUCUAUCAUUUAAUGUAAGAGAAGGAAGAUUGUUGU [JMF's solution 97] (Eterna round: R96, puzzle: Same State NG 3) | 0.122 µM | 0.106 µM | 0.118 µM |  |  |  |
| GUUACAUGAGGAUCACCCAUGUAUGUGUGGGAGUAAGUGUCUUAGGAUAUCUAUCAUUUAAUUAAAGAGAAGGAAGAUUGUUGU [JMF's solution 98] (Eterna round: R96, puzzle: Same State NG 3) | 0.0869 µM | 0.0873 µM | 0.113 µM |  |  |  |
| GUUACAUGAGGAUCACCCAUGUAUGUGUGGGAGUAAGUGUCUUAGGAUAUCUAUUAUAUAAAUUAAGAGAAGGAAGAUUGUUGU [JMF's solution 16] (Eterna round: R96, puzzle: Same State NG 3) | 0.126 µM | 0.0879 µM | 0.124 µM |  |  |  |
| GUUACAUGAGGAUCACCCAUGUAUGUGUGGGAGUAAGUGUCUUAGGAUAUCUAUUAUGUAAAUUAAGAGAAGGAAGAUUGUUGU [JMF's solution 17] (Eterna round: R96, puzzle: Same State NG 3) | 0.16 µM | 0.222 µM | 0.262 µM |  |  |  |
| GUUACAUGAGGAUCACCCAUGUAUGUGUGGGAGUAAGUGUCUUAGGAUAUCUAUUAUUUAAGUUAAGAGAAGGAAGAUUGUUGU [JMF's solution 23] (Eterna round: R96, puzzle: Same State NG 3) | 0.121 µM | 0.0947 µM | 0.114 µM |  |  |  |
| GUUACAUGAGGAUCACCCAUGUAUGUGUGGGAGUAAGUGUCUUAGGAUAUCUGGUAUUUAAUUUAAGAGAAGGAAGAUUGUUGU [JMF's solution 30] (Eterna round: R96, puzzle: Same State NG 3) | 0.0919 µM | 0.0637 µM | 0.0773 µM |  |  |  |
| GUUAGGAAUCUAGCAAACAUGAGGAUCACCCAUGUAAGUGGGAAGGAUAUGGUACAGAAACUGUACCAGAAGGUCUUAUUGUUU [Omei SS(NG) 3 AV8] (Eterna round: R96, puzzle: Same State NG 3) | 0.602 µM | 0.0175 µM | 0.28 µM |  |  |  |
| GUUAGGAAUCUAGCAGACAUGAGGAUCACCCAUGUUAGUGGGAAGGAUAUGGUACAGAAACUGUACCAGAAGGUCUUAUUGUUU [Omei SS(NG) 3 AV13] (Eterna round: R96, puzzle: Same State NG 3) | 0.348 µM | 0.398 µM | 0.69 µM |  |  |  |
| GUUAGGAAUCUAGCAUACAUGAGGAUCACCCAUGUAAGUGGGAAGGAUAUGGUACAGAAACUGUACCAGAAGGUCUUAUUAAUU [Omei SS(NG) 3 A] (Eterna round: R96, puzzle: Same State NG 3) | 0.0653 µM | 0.0804 µM | 0.0631 µM |  |  |  |
| GUUAUACAUGAGGAUCACCCAUGUCAAUGUAGUCGAGGAUAUGGGCAGCUGUGAGGCGUACUAGAAGGCGAAGAGG [JL-ss1-3.10 ViennaUCT mod] (puzzle: Same State 1) |  |  |  | 0.0861 µM | 0.198 µM | 0.17 µM |
| GUUUGAUGGUGAGGAUAUGUACAAAGAUAGGGUAUAGAAGGCAUGCGCCGGGAAACCGCGGUACAUGAGGAUCACCCAUGUGUC [Eternabot solution 36] (Eterna round: R96, puzzle: Same State NG 1) | 0.207 µM | 0.0549 µM | 0.121 µM |  |  |  |
| UAAAGAUCGCGAGGAUAUCGCGAGGAUCACCCGUGAGAAGGCGCAGAGCCGAGGAUCACCCGGCUGAUCCUGAGGAGGAGGUCU (Eterna round: R96, puzzle: Same State NG 1) | 0.124 µM | 0.202 µM | 0.318 µM |  |  |  |
| UAAAUAAUGUAAGGAUAUACAUGAGGAAUUCUCGUAGAAGGUACAUGACAUGAGGAUCACCCAUGUAUCGCUCAGAAGAGCGUA [Mat - Same State NG 1 - JL mod - D28] (Eterna round: R96, puzzle: Same State NG 1) | 1.66 µM | 0.0399 µM | 0.298 µM |  |  |  |
| UAAGCAUUCCUAGGAUAUGUAGGAUAUGUACAUGAGGAUCACCCAUGUCUACCAGAGACAGAAGGACAGAAGGAGGAAUGCUUC [pwkr ssNG2 2FMN 1F5s.8] (Eterna round: R96, puzzle: Same State NG 2) | 0.0191 µM | 0.0258 µM | 0.0365 µM |  |  |  |
| UAAGUCAUGUAAGGAUAUGCAGCCGAAACGGCUGCAGAAGGUACUAUAAUUACAUGAGGAUCACCCAUGUUAUAAAAUUUAAAU [Mat - Same State NG 1 - JL mod - D78] (Eterna round: R96, puzzle: Same State NG 1) | 0.0241 µM | 0.0432 µM | 0.0607 µM |  |  |  |
| UACAAUCUAUCUGAGGAUAUCAUGAAUUUAACAUGAGGAUCACCCAUGUGCAGGAAAACUGCAUAUGAGAAGGCAGAUAGAUUGU [salish99_ss2_r3_061] (puzzle: Same State 2) |  |  |  | 0.0713 µM | 0.028 µM | 0.0941 µM |
| UACAAUCUAUCUGAGGAUAUCAUGAUUUUAACAUGAGGAUCACCCAUGUGCAGGAAAACUGCAUAUGAGAAGGCAGAUAGAUUGU [salish99_ss2_r3_070] (puzzle: Same State 2) |  |  |  | 0.199 µM | 0.0697 µM | 0.178 µM |
| UAGGGACAUGAGGAUCACCCAUGUGCCUCAUAUGGAGAAACUCAGGAUAUGCUGAGGAUCACCCGGCAGAAGGGAGAUCCGAGG (Eterna round: R96, puzzle: Same State NG 3) | 0.0866 µM | 0.033 µM | 0.0534 µM |  |  |  |
| UAGUACAUGCUUUUUGUCUGUCUUAGAUAACAUGAGGAUCACCCAUGUAAGGUGAAAGUUAUAUAGUUUAUGAAUAU [JR_SHM208A_Sub058] (Eterna round: R96, puzzle: Sensor for hsa-mir-208a) | 0.242 µM | 0.309 µM | 0.241 µM |  |  |  |
| UAGUACAUGCUUUUUGUCUGUCUUAGAUAACAUGAGGAUCACCCAUGUAAGGUGAAAGUUAUAUAGUUUAUGAAUAU [JR_SHM208A_Sub058] (puzzle: Sensor for hsa-mir-208a) |  |  |  | 0.188 µM | 0.347 µM | 0.264 µM |
| UAUCCAUAGAUAGGAUAUUAGAGAACAUGAGGAUCACCCAUGUUUGGCUUGGUUUUAAGCUAAUCUAAGAAGGAUCUUGAUGAA [SameState NG2 #9] (Eterna round: R96, puzzle: Same State NG 2) | 0.0133 µM | 0.0229 µM | 0.0365 µM |  |  |  |
| UAUCGUUUGAUAGGAUAUCGCUAUACAUGAGGAUCACCCAUGUUUACCACGCUGGUUUUUCAUACCGAGAAGGAUUCUGAUGAA [salish99_SSNG02_r04_004] (Eterna round: R96, puzzle: Same State NG 2) | 0.029 µM | 0.0196 µM | 0.0325 µM |  |  |  |
| UAUGACUUACAAGGAUAUUAAUGACAUGAGGAUCACCCAUGUGGCUGUGUGUGUUAGAUAAGCUUUAAGAAGGUGUGCGUGUCU [JR_SSNG2_Sub096] (Eterna round: R96, puzzle: Same State NG 2) | 0.361 µM | 0.288 µM | 0.386 µM |  |  |  |
| UAUUAAUCUGUAGGAUAUCUAGGAUAUGGACGAGGAUCACCCGAGCAGCAUCAGCGCACCAGAGGAGAGAAGGACGCUCUGGUG [pwkr ssNG2 2F5 2FMN.25] (Eterna round: R96, puzzle: Same State NG 2) | 0.332 µM | 0.0937 µM | 0.469 µM |  |  |  |
